Measurements from patent US20240139239A1.

Target: OVA peptide 323-339 presented on MHC-II molecules (Gallus gallus (Chicken)) (UniProt P01012)

T cell receptor of OT-II CD4+ T cells, specific for ovalbumin (OVA) peptide presented in the context of MHC-II molecules (TCR)
proliferation (CTVlow) of OT-II CD4+ T cells after 5 days of co-culture with peptide-loaded PIP-induced cells: 10.7%
